Data on 1 molecule can be found in doi:10.1101/2024.12.22.629684 (bioRxiv, 2024).

The assay deals with T1, Yku80 (S. cerevisiae, UniProt Q04437 1-629).
T1 sequence (looked up): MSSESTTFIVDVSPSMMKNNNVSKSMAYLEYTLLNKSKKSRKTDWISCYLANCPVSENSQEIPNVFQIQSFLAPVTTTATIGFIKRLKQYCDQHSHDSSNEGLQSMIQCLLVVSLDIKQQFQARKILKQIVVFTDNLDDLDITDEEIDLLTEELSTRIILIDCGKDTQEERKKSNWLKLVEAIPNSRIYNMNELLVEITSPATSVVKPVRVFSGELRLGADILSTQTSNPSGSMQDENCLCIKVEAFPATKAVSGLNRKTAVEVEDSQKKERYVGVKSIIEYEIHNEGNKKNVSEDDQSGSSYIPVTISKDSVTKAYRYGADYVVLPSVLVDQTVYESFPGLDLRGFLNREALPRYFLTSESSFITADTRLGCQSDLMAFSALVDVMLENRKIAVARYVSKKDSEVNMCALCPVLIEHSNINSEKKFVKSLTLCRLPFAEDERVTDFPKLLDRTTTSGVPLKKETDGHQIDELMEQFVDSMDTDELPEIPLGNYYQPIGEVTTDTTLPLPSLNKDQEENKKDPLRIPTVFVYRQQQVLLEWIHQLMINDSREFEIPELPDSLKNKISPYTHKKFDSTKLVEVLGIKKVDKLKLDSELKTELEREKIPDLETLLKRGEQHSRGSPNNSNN
Description: cryo-EM structure.

B1: Yku70 (natural protein, S. cerevisiae, UniProt P32807 1-602, looked up)
chain: MRSVTNAFGNSGELNDQVDETGYRKFDIHEGILFCIELSETMFKESSDLEYKSPLLEILESLDELMSQLVITRPGTAIGCYFYYCNREDAKEGIYELFPLRDINATFMKKLNDLLEDLSSGRISLYDYFMFQQTGSEKQVRLSVLFTFMLDTFLEEIPGQKQLSNKRVFLFTDIDKPQEAQDIDERARLRRLTIDLFDNKVNFATFFIGYADKPFDNEFYSDILQLGSHTNENTGLDSEFDGPSTKPIDAKYIKSRILRKKEVKRIMFQCPLILDEKTNFIVGVKGYTMYTHEKAGVRYKLVYEHEDIRQEAYSKRKFLNPITGEDVTGKTVKVYPYGDLDINLSDSQDQIVMEAYTQKDAFLKIIGFRSSSKSIHYFNNIDKSSFIVPDEAKYEGSIRTLASLLKILRKKDKIAILWGKLKSNSHPSLYTLSPSSVKDYNEGFYLYRVPFLDEIRKFPSLLSYDDGSEHKLDYDNMKKVTQSIMGYFNLRDGYNPSDFKNPLLQKHYKVLHDYLLQIETTFDENETPNTKKDRMMREDDSLRKLYYIRNKILESEKSEDPIIQRLNKYVKIWNMFYKKFNDDNISIKEEKKPFDKKPKFNI
For the molecule B1, the binding result is recorded as “binds”.
